What is called Kd is the equilibrium constant for the complex coming apart.

The target in test [1] is HLA-B*40:01. In words: IEDB peptide-MHC binding, purified MHC/competitive/radioactivity; filed as Kd, often an IC50 or EC50 that approximates it; ≥ and ≤ were set here for values at or beyond the usual limits of such assays.
Test [2] deals with HLA-B*44:02. The test is described as above.
Test [3] addresses HLA-B*44:03. The description is as above.
In test [4] the target is HLA-A*32:01. The description is as above.
Test [5] deals with HLA-A*02:06. The description is as above.
The target in test [6] is HLA-B*07:02. The test is described as above.
Test [7] has as its target HLA-B*51:01. The description is as above.
Test [8] deals with HLA-A*02:02. The description is as above. The conditions noted are these: source organism: Vaccinia virus WR.
Test [9] addresses HLA-A*02:03. Described as above. The conditions noted are these: source organism: Vaccinia virus WR.
Test [10] has as its target HLA-A*01:01. In words: IEDB peptide-MHC binding, purified MHC/direct/fluorescence; filed as Kd, often an IC50 or EC50 that approximates it; ≥ and ≤ were set here for values at or beyond the usual limits of such assays.
For test [11], the target named is HLA-A*02:01. The test is described as above. The following applies: source organism: Coxiella burnetii.
For test [12], the target named is HLA-A*03:01. Described as above. The conditions noted are these: source organism: Coxiella burnetii.
Test [13] deals with HLA-A*11:01. The test is described as above. The following applies: source organism: Coxiella burnetii.
The target in test [14] is HLA-A*26:01. The description is as above.
The target of test [15] is HLA-A*31:01. The description is as above. The conditions noted are these: source organism: Coxiella burnetii.
In test [16] the target is HLA-A*69:01. Described as above. The conditions noted are these: source organism: Coxiella burnetii.
For test [17], the target named is HLA-B*07:02. Described as above. The following applies: source organism: Coxiella burnetii.
Test [18] concerns the target HLA-B*08:01. The description is as above. The following applies: source organism: Coxiella burnetii.
Test [19] addresses HLA-B*15:01. Described as above. The conditions noted are these: source organism: Coxiella burnetii.
For test [20], the target named is HLA-B*27:05. Described as above. The following applies: source organism: Coxiella burnetii.
The target in test [21] is HLA-B*40:01. The description is as above. The conditions noted are these: source organism: Coxiella burnetii.
Test [22] addresses HLA-B*44:02. The description is as above. The following applies: source organism: Coxiella burnetii.
The target of test [23] is HLA-B*58:01. Described as above. The following applies: source organism: Coxiella burnetii.
Test [24] concerns the target HLA-B*35:01. Briefly: IEDB peptide-MHC binding, purified MHC/competitive/radioactivity; filed as Kd, often an IC50 or EC50 that approximates it; ≥ and ≤ were set here for values at or beyond the usual limits of such assays.
The target in test [25] is HLA-A*30:01. Described as above.
[26] abbreviates: source organism: Dengue virus 2 Jamaica/1409/1983.
[27] abbreviates: source organism: Dengue virus 3 Martinique/1243/1999.
The mark [28] stands for this setting: source organism: Vaccinia virus WR.
Where [29] appears, read: source organism: Dengue virus 1 Brazil/97-11/1997.
Where [30] appears, read: source organism: Dengue virus 2 Peru/IQT2913/1996.
Setting [31] is: source organism: Coxiella burnetii.
The mark [32] stands for this setting: source organism: Dengue virus 4 Philippines/H241/1956.
[33] abbreviates: source organism: Dengue virus 1 Singapore/S275/1990.
Setting [34] is: source organism: Mycobacterium avium 104.

With MEAQLIRQM, the Kd in test [1] (setting [26]) amounted to 802 nM; in test [2] (setting [26]), 11.2 nM; in [3] (setting [26]), 119 nM. For the sequence AEMEEALKGL, the Kd stood at 15.5 nM in [1] (setting [27]), 26 nM in [2] (setting [27]) and 56.2 nM in [3] (setting [27]). On to RLNQPVNNI, for which the Kd in test [4] (setting [28]) came to 25 nM. Turning to EEVQVLALE, the dissociation constant Kd in test [3] (setting [26]) worked out at 10500 nM. On to WMVHRQWFFD, for which the dissociation constant Kd in [4] (setting [27]) worked out at 4960 nM. In the case of GEGLHKLGY, the equilibrium dissociation constant (Kd) was found to be 120 nM in [2] (setting [26]) and 280 nM in [3] (setting [26]). Consider VEDYGFGVF, for which the Kd in [1] (setting [26]) worked out at 315 nM.

With LEKHGAERL, the Kd in test [1] (setting [29]) came to 23.7 nM.

GESSPNPTV: the dissociation constant (Kd) came to 15.6 nM in test [1] (setting [30]) and 321 nM in test [2] (setting [30]). For FTLTVAWRTA, the Kd in test [5] (setting [27]) was found to be 376 nM; in test [4] (setting [27]) it was 9400 nM.

As for IPKNFAGPV, the figures for the equilibrium dissociation constant (Kd) in test [6] (setting [26]) and in test [7] (setting [26]) were 6.79 nM and 3.1 µM, respectively. As to LSNGASLTI, the Kd in [4] (setting [28]) came to 73.5 nM. IVYGRSNAI: the dissociation constant (Kd) stood at 14.9 nM in [8], 15.8 nM in test [9], 30.2 nM in test [5] (setting [28]) and 3.15 nM in test [4] (setting [28]). Turning to EEMPLVWDL, the Kd is no less than 20 µM in test [10] (setting [31]); no less than 20 µM in [11]; no less than 20 µM in test [12]; no less than 20 µM in [13]; no less than 20000 nM in test [14] (setting [31]); no less than 20 µM in [15]. In addition, the Kd is no less than 20 µM in [16]; no less than 20 µM in [17]; no less than 20 µM in test [18]; no less than 20 µM in [19]; no less than 20 µM in test [20]; 18.9 nM in [21]. The figures for the dissociation constant (Kd) in test [22] and in test [23] were 9.33 µM and no less than 20 µM, respectively. For MPIRYQTTAV, the dissociation constant (Kd) was found to be 11.3 nM in test [6] (setting [29]), 48 nM in test [24] (setting [29]) and 0.347 µM in test [7] (setting [29]). In the case of FEEVMRGKFG, the dissociation constant Kd in test [1] (setting [27]) turned out to be 1340 nM. With NEMILMKMK, the Kd in test [2] (setting [32]) is 400 nM; in test [3] (setting [32]) it was 2910 nM.

In the case of NDMISYGGGW, the Kd was found to be 6.18 nM in test [2] (setting [32]) and 71.2 nM in test [3] (setting [32]).

With RPRWLDARVY, in test [6] (source organism: Dengue virus 4 Dominica/814669/1981), the Kd is 13.7 nM.

Turning to VEKVETWAL, the dissociation constant Kd in test [1] (setting [27]) was 14.9 nM. Regarding KPGTSGSPIV, in [6] (setting [29]), the Kd was determined as 1080 nM.

LPVWLAYRVA: the values for the Kd in test [24] (setting [26]) and in test [7] (setting [26]) were 311 nM and 4.99 µM, respectively. Turning to KEISNMLSII, the Kd in [1] (setting [27]) was determined as 52.2 nM; in test [2] (setting [27]), 29.4 nM; in test [3] (setting [27]), 267 nM. On to GEVDSFSLGL, for which the results for the equilibrium dissociation constant (Kd) in [1] (setting [33]) and in [3] (setting [33]) were 2.13 nM and 158 nM, respectively. LTVTLVWLY: the Kd was no less than 20 µM in [10] (setting [34]) and 2.7 nM in test [14] (setting [34]). On to EIARIVEQM, for which the Kd in [14] (source organism: Mycobacterium tuberculosis variant bovis) was found to be 194 nM.

As for FIRSTMPLVM, the Kd in test [24] (setting [32]) was 2960 nM. For the sequence WIEDNPWMED, in [4] (setting [27]), the Kd was determined as 4160 nM.

On to DEDCAHWKEA, for which, in test [4] (setting [26]), the equilibrium dissociation constant (Kd) was no less than 69900 nM. As to TPSMAMRCVG, the Kd in test [6] (setting [29]) is 405 nM.

As to RSTSLSVSL, the Kd in test [4] (setting [26]) came to 100 nM. Still for that read-out and setting: as for IGVIITWIGM, the figure is no less than 59000 nM.

Regarding LLLVTHYAI, the Kd in test [4] (source organism: Dengue virus 3 Singapore/8120/1995) amounted to 41.6 nM. With IIWKGIYTY, in test [4] (setting [28]), the dissociation constant (Kd) was 3.28 nM.

Take GTFHTMWHVT: in test [4] (setting [26]), the equilibrium dissociation constant (Kd) was 13400 nM. DPRRCMKPV: the Kd in test [6] (setting [26]) turned out to be 139 nM.

Consider EEIAVQNWL, for which the dissociation constant Kd in [1] (setting [26]) is 14.8 nM; in test [2] (setting [26]), 6.91 nM; in test [3] (setting [26]), 10.6 nM. Take VATTFVTPM: the Kd in test [24] (setting [26]) was found to be 205 nM.

KELEGILLP: the equilibrium dissociation constant (Kd) in test [3] (source organism: Homo sapiens) is 356 nM. RPTFAAGLL: the equilibrium dissociation constant (Kd) in test [6] (setting [26]) came out at 1.09 nM. Turning to AEISGSSPI, the Kd in test [1] (setting [26]) is 0.66 nM; in test [2] (setting [26]), 14.6 nM; in [3] (setting [26]), 25.5 nM. For AETQNSSFI, the Kd turned out to be 142 nM in [1] (setting [27]), 2.67 nM in test [2] (setting [27]) and 123 nM in test [3] (setting [27]). Turning to KTKRILPSI, the equilibrium dissociation constant (Kd) in test [25] (setting [32]) came out at 6.75 nM; in test [4] (setting [32]), 125 nM. For the sequence TLKRRSWPLN, the Kd in [25] (setting [27]) is 5450 nM; in [4] (setting [27]), 19100 nM.

The record behind these values is the Immune Epitope Database (IEDB).
